From the supplement of paper PMC9942255 come the findings set out here.

Values joined by “and” are separate entries in the source; they are usually repeats but may differ in a detail not shown here. Equal values may be shown once.

The subject of the data set is Bacillus subtilis DB104 (SP-AmyQ fusion secretion). The data set is described as follows: AmyQ secretion efficiency, weighted average sort bin (1 = best secretion, 10 = worst) (bin number (weighted average, 1-10)); higher = lower secretion efficiency. The method in brief:
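The secretion score gives the average bin number weighted by read frequency and normalised to beads per bin, with low-abundance sequences excluded. Bins were 10 equally populated green/red fluorescence ratio fractions of occupied ~65 nL alginate beads, sorted by large-particle flow cytometry. The beads held fluorescein-starch and about 0.3 cells each of an amyE-integrated B. subtilis DB104 library fusing designed signal peptides to mature AmyQ, and they were grown about 13 h at room temperature and stained with nile red before sorting and Illumina sequencing.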

MKLRKVLTGSVLSLGLLVSASPAFATED registered an AmyQ secretion efficiency of 2.67.

As to MKLRKVLTGSVLSLGLLVSASPAFATRK, the AmyQ secretion efficiency was determined as 2.53.

As to MKLRKVLTGSVLSLGLLVSASPAFATSD, the AmyQ secretion efficiency amounted to 2.17.

For MKLRKVLTGSVLSLGLLVSASPAFATSR, the AmyQ secretion efficiency stood at 1.56.

For the sequence MKLRKVLTGSVLSLGLLVSASPIFATSP, the AmyQ secretion efficiency is 1.63.

On to MKLRKVLTGSVLSLGLLVSASPNFATSP, for which the AmyQ secretion efficiency is 5.36.

Sequence MKLRKVLTGSVLSLGLLVSASPTFATSP had an AmyQ secretion efficiency of 1.93.

The sequence MKLRKVLTGSVLSLVSASPAFATSP had an AmyQ secretion efficiency of 3.59.

In the case of MKLRKVRKGSVLSLGLLVSASPAFATSP, the AmyQ secretion efficiency worked out at 4.34.

With MKLRKVRRRKKRSLGLLVSASPAFATSP, the AmyQ secretion efficiency is 8.72.

The sequence MKLSVKFLFIAGVLTVAAAAMTAKMYATAKGN yielded an AmyQ secretion efficiency of 4.51.

The sequence MKLSVKIAGVLTVAAAAMDDEDDEATAKGN came in with an AmyQ secretion efficiency of 7.46.

Consider MKLSVKIAGVLTVAAAAMEDDMYATAKGN, for which the AmyQ secretion efficiency is 6.49.

In turn, MKLSVKIAGVLTVAAAAMEEKMYATAKGN registered an AmyQ secretion efficiency of 7.66.

MKLSVKIAGVLTVAAAAMIAIATTAKMYATAKGN displayed an AmyQ secretion efficiency of 5.63.

Regarding MKLSVKIAGVLTVAAAAMKATAKGN, the AmyQ secretion efficiency was 7.76.

In turn, MKLSVKIAGVLTVAAAAMRKKMYATAKGN showed an AmyQ secretion efficiency of 7.43.

Sequence MKLSVKIAGVLTVAAAAMRKRKKRATAKGN came in with an AmyQ secretion efficiency of 7.22.

For MKLSVKIAGVLTVAAAAMSTAKMYATAKGN, the AmyQ secretion efficiency is 7.14.

Take MKLSVKIAGVLTVAAAAMTAGMYATAKGN: the AmyQ secretion efficiency was 5.78.

For MKLSVKIAGVLTVAAAAMTAKMYATAADD, the AmyQ secretion efficiency came to 6.81.

On to MKLSVKIAGVLTVAAAAMTAKMYATAAGD, for which the AmyQ secretion efficiency turned out to be 6.46.

For the sequence MKLSVKIAGVLTVAAAAMTAKMYATAAGN, the AmyQ secretion efficiency is 6.91.

The sequence MKLSVKIAGVLTVAAAAMTAKMYATAEEE registered an AmyQ secretion efficiency of 6.08.

In turn, MKLSVKIAGVLTVAAAAMTAKMYATAKKK yielded an AmyQ secretion efficiency of 5.42.

For the sequence MKLSVKIAGVLTVAAAAMTAKMYATDKGN, the AmyQ secretion efficiency was 5.75.

Sequence MKLSVKIAGVLTVAAAAMTAKMYATEKGN came in with an AmyQ secretion efficiency of 4.74.

For the sequence MKLSVKIAGVLTVAAAAMTAKMYATFTGTFAATAKGN, the AmyQ secretion efficiency is 7.49.

In turn, MKLSVKIAGVLTVAAAAMTAKMYATGKGN came in with an AmyQ secretion efficiency of 6.84.

MKLSVKIAGVLTVAAAAMTAKMYATHKGN had an AmyQ secretion efficiency of 6.71.

MKLSVKIAGVLTVAAAAMTAKMYATIKGN had an AmyQ secretion efficiency of 6.84.

Sequence MKLSVKIAGVLTVAAAAMTAKMYATKKGN came in with an AmyQ secretion efficiency of 8.52.

MKLSVKIAGVLTVAAAAMTAKMYATLKGN registered an AmyQ secretion efficiency of 7.31.

MKLSVKIAGVLTVAAAAMTAKMYATMKGN displayed an AmyQ secretion efficiency of 6.84.

MKLSVKIAGVLTVAAAAMTAKMYATNKGN returned an AmyQ secretion efficiency of 6.32.

In turn, MKLSVKIAGVLTVAAAAMTAKMYATPKGN showed an AmyQ secretion efficiency of 5.67.

MKLSVKIAGVLTVAAAAMTAKMYATQKGN: the AmyQ secretion efficiency amounted to 7.51.

As for MKLSVKIAGVLTVAAAAMTAKMYATRKGN, the AmyQ secretion efficiency was 7.91.

MKLSVKIAGVLTVAAAAMTAKMYATSKGN returned an AmyQ secretion efficiency of 6.78.

Sequence MKLSVKIAGVLTVAAAAMTAKMYATTKGN came in with an AmyQ secretion efficiency of 5.53.

The sequence MKLSVKIAGVLTVAAAAMTAKMYATVKGN returned an AmyQ secretion efficiency of 6.87.

For MKLSVKIAGVLTVAAAAMTAKMYATWKGN, the AmyQ secretion efficiency was 7.14.

Turning to MKLSVKIAGVLTVAAAAMTAKMYATYKGN, the AmyQ secretion efficiency was found to be 7.14.

For MKLSVKIAGVLTVAAAAMTAKMYCTAKGN, the AmyQ secretion efficiency worked out at 7.19.

MKLSVKIAGVLTVAAAAMTAKMYDTAKGN yielded an AmyQ secretion efficiency of 4.44.

MKLSVKIAGVLTVAAAAMTAKMYFFPAATAKGN displayed an AmyQ secretion efficiency of 6.16.

MKLSVKIAGVLTVAAAAMTAKMYFTAKGN registered an AmyQ secretion efficiency of 7.66.

On to MKLSVKIAGVLTVAAAAMTAKMYGTAKGN, for which the AmyQ secretion efficiency was found to be 5.59.

As to MKLSVKIAGVLTVAAAAMTAKMYHTAKGN, the AmyQ secretion efficiency is 6.87.

In turn, MKLSVKIAGVLTVAAAAMTAKMYKTAKGN gave an AmyQ secretion efficiency of 7.2.

Sequence MKLSVKIAGVLTVAAAAMTAKMYLTAKGN had an AmyQ secretion efficiency of 7.31.

With MKLSVKIAGVLTVAAAAMTAKMYMTAKGN, the AmyQ secretion efficiency worked out at 6.8.

MKLSVKIAGVLTVAAAAMTAKMYNTAKGN returned an AmyQ secretion efficiency of 6.07.

MKLSVKIAGVLTVAAAAMTAKMYPTAKGN returned an AmyQ secretion efficiency of 5.7.

As to MKLSVKIAGVLTVAAAAMTAKMYQTAKGN, the AmyQ secretion efficiency came out at 7.71.

Sequence MKLSVKIAGVLTVAAAAMTAKMYRTAKGN returned an AmyQ secretion efficiency of 7.39.

For MKLSVKIAGVLTVAAAAMTAKMYSTAKGN, the AmyQ secretion efficiency came out at 6.41.

MKLSVKIAGVLTVAAAAMTAKMYTTAKGN showed an AmyQ secretion efficiency of 7.65.

Sequence MKLSVKIAGVLTVAAAAMTAKMYVTAKGN displayed an AmyQ secretion efficiency of 8.14.

For the sequence MKLSVKIAGVLTVAAAAMTAKMYWTAKGN, the AmyQ secretion efficiency amounted to 7.62.

Consider MKLSVKIAGVLTVAAAAMTAKMYYTAKGN, for which the AmyQ secretion efficiency is 6.5.

In turn, MKLSVKIAGVLTVAAAAMVAFTIAFFFTAKMYATAKGN came in with an AmyQ secretion efficiency of 2.45.

As to MKLSVKIAGVLTVAAAAMVAIMGATAKGN, the AmyQ secretion efficiency amounted to 8.27.

In turn, MKLSVKIAGVLTVAATAKMYATAKGN gave an AmyQ secretion efficiency of 7.17.

MKLSVKIALVLIVAAAAMTAKMYATAKGN came in with an AmyQ secretion efficiency of 3.77.

The sequence MKLSVKIKKKRRKAAAAMTAKMYATAKGN gave an AmyQ secretion efficiency of 7.56.

MKLSVKIRKVLTVAAAAMTAKMYATAKGN: the AmyQ secretion efficiency was 6.94.

For the sequence MKLSVKIRRRKTVAAAAMTAKMYATAKGN, the AmyQ secretion efficiency was found to be 7.97.

MKLSVKRGTTLTVAAAAMTAKMYATAKGN displayed an AmyQ secretion efficiency of 7.06.

The sequence MKLSVKTRQKTTVAAAAMTAKMYATAKGN had an AmyQ secretion efficiency of 7.48.

Sequence MKLWMRKTLRRKKRKVTFGLVSPPAALMADKP returned an AmyQ secretion efficiency of 7.28.

Consider MKLWMRKTLRRLFTIVTFGLVSPPAALMADKP, for which the AmyQ secretion efficiency came out at 7.18.

Sequence MKLWMRKTLVVLFLIVFFFLGTVSPPAALMADKP gave an AmyQ secretion efficiency of 3.95.

As to MKLWMRKTLVVLFTIVTFGLKKRPAALMADKP, the AmyQ secretion efficiency was 6.91.

On to “MKLWMRKTLVVLFTIVTFGLVIATFTTVAVSPPAALMADKP”, for which the AmyQ secretion efficiency stood at 4.44.

Sequence MKLWMRKTLVVLFTIVTFGLVSPPAAEMADKP had an AmyQ secretion efficiency of 2.41.

Regarding MKLWMRKTLVVLFTIVTFGLVSPPAAFMADKP, the AmyQ secretion efficiency turned out to be 2.2.

MKLWMRKTLVVLFTIVTFGLVSPPAAGMADKP registered an AmyQ secretion efficiency of 3.4.

Consider MKLWMRKTLVVLFTIVTFGLVSPPAAHMADKP, for which the AmyQ secretion efficiency was determined as 2.08.

In turn, MKLWMRKTLVVLFTIVTFGLVSPPAAIMADKP yielded an AmyQ secretion efficiency of 1.63.

For the sequence MKLWMRKTLVVLFTIVTFGLVSPPAAKMADKP, the AmyQ secretion efficiency turned out to be 3.22.

Sequence MKLWMRKTLVVLFTIVTFGLVSPPAALMAATP came in with an AmyQ secretion efficiency of 2.71.

Consider MKLWMRKTLVVLFTIVTFGLVSPPAALMCDKP, for which the AmyQ secretion efficiency amounted to 2.74.

Turning to MKLWMRKTLVVLFTIVTFGLVSPPAALMFDKP, the AmyQ secretion efficiency amounted to 3.85.

In turn, MKLWMRKTLVVLFTIVTFGLVSPPAALMGDKP had an AmyQ secretion efficiency of 4.12.

In turn, MKLWMRKTLVVLFTIVTFGLVSPPAALMIDKP returned an AmyQ secretion efficiency of 2.83.

Regarding MKLWMRKTLVVLFTIVTFGLVSPPAALMMDKP, the AmyQ secretion efficiency was 2.97.

Consider MKLWMRKTLVVLFTIVTFGLVSPPAALMQDKP, for which the AmyQ secretion efficiency turned out to be 2.54.

As to MKLWMRKTLVVLFTIVTFGLVSPPAALMSDKP, the AmyQ secretion efficiency came to 3.94.

Consider MKLWMRKTLVVLFTIVTFGLVSPPAALMTDKP, for which the AmyQ secretion efficiency is 2.85.

In turn, MKLWMRKTLVVLFTIVTFGLVSPPAALMVDKP came in with an AmyQ secretion efficiency of 2.11.

Regarding MKLWMRKTLVVLFTIVTFGLVSPPAALMYDKP, the AmyQ secretion efficiency was found to be 3.73.

As for MKLWMRKTLVVLFTIVTFGLVSPPAAMMADKP, the AmyQ secretion efficiency is 1.82.

MKLWMRKTLVVLFTIVTFGLVSPPAAQMADKP returned an AmyQ secretion efficiency of 1.81.

MKLWMRKTLVVLFTIVTFGLVSPPAARMADKP displayed an AmyQ secretion efficiency of 2.4.

In the case of MKLWMRKTLVVLFTIVTFGLVSPPAASMADKP, the AmyQ secretion efficiency stood at 1.85.

Sequence MKLWMRKTLVVLFTIVTFGLVSPPAATMADKP yielded an AmyQ secretion efficiency of 2.68.

MKLWMRKTLVVLFTIVTFGLVSPPAAVMADKP had an AmyQ secretion efficiency of 2.79.

With MKLWMRKTLVVLFTIVTFGLVSPPALMADKP, the AmyQ secretion efficiency came to 1.9.

For the sequence MKLWMRKTLVVLFTIVTFGLVVPPAALMADKP, the AmyQ secretion efficiency came to 2.83.

Sequence MKLWMRKTQKGLFTIVTFGLVSPPAALMADKP registered an AmyQ secretion efficiency of 5.07.

As for MKMKSGMEQAVSVLLLLSRLPASLTSE, the AmyQ secretion efficiency was determined as 3.77.

For the sequence MKMKSGMEQAVSVLLLLSRLPVQASFTSE, the AmyQ secretion efficiency amounted to 7.78.

The sequence MKMKSGMEQAVSVLLLLSRLPVQASITSE yielded an AmyQ secretion efficiency of 7.01.

MKMKSGMEQAVSVLLLLSRLPVQASLRRK registered an AmyQ secretion efficiency of 7.08.

With MKMKSGMEQAVSVLLLLSRLPVQASLTRK, the AmyQ secretion efficiency was 7.01.

As to MKMKSGMEQAVSVLLLLSRLPVQASLTSD, the AmyQ secretion efficiency was found to be 6.62.

For the sequence MKMKSGMEQAVSVLLLLSRLPVQASLTSE, the AmyQ secretion efficiency is 7.57 and 7.03.
